The record followed here is the nanobody polyreactivity screen of Harvey et al. (2022).

The nature of this data set: yeast display, Sf9 membrane polyspecificity reagent, FACS + sequencing; frameworks hold sequencing errors. The procedure, abridged:
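Polyreactivity labels are assigned by the sorting gate from which each nanobody was recovered. The gates were low and high (top ~1%), set on anti-HA fluorescence for expression and streptavidin fluorescence for reagent binding. Before sorting, galactose-induced (36–48 hours) yeast display cells were stained for 1 hour at 4 °C with 10% biotinylated, detergent-solubilized Sf9 membrane reagent.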
As to “QVQLVESGGGLVQAGGSLRLSCAAARYAMGWYRPAPGKERELVAAISKSGGSTYYADSVKGRFTISRDNAKNTVYLQMNSLIPEDTAVYYCAARGHAGRGEYYYWGQGTQVTVSS”, the “polyreactivity (PSR sort gate)” value was “high polyreactivity”. As to “QVQLVESGGGLVQAGGSLRLSCAASGSTFGSYAMGWYRQAPGKERELVAAISRGGGSTYYADSVKGRFTISRDNAKNTVYLQMNSLKPEDTAVYYCAATAQNDSRYGSRYYYWGQGTQVTVSS”, the “polyreactivity (PSR sort gate)” value is listed as “high polyreactivity”. For the sequence “QVQLVESGGGLVQAGGSLRLICAASGSIFITNAMGWYRQAPGKEREMVAAISGRGGSTYYADSVKGRFTISRDNAKNTVYLQMNSLKPEDTAVYYCNAYSYRVSGYDYWGQGTQVTVSS”, the “polyreactivity (PSR sort gate)” value is “high polyreactivity”. With “QVQLVESGGGLVQAGGSLRLSCAASGRIFALYAMGWYRQAPGKERELVATITRSGTNTYYADSVKGRFTISRDNAKNTVYLQMNRLKPEDTAVYYCAAYRFWQRTMGYWGQGTQVTVSS”, the “polyreactivity (PSR sort gate)” value is given as “high polyreactivity”.

“QVQLVESGGGLVQAGGSLRLICAASGSIFRSYAMGWYRQAPGKERELVAPIDRSGGSTYYADSVKGRLTISRDYAKNTVYCQLNSLKPEDTAVYNSNKTPHFPRPGFNYWGLGTQVTVSS”: the “polyreactivity (PSR sort gate)” value is “low polyreactivity”.

Consider “QDQLVESGGCLVQAGGSLRLSCAASGNIFDTYVMGWYRQAPGKEMELVAAITSDGGTYYADSVKARFTISRDNAKNTVYLQMNSLKPEDTAVYYCAADTYYYPIHDYWGQGTQVTVSS”, for which the “polyreactivity (PSR sort gate)” value is listed as “low polyreactivity”. The entry for “EEELVESGGGLVQAGGSLRLSCAASGSIFVVNAMGWYRQAPGKERELVAAISRGGITNYADSVKGRFTISRDNAKNTVYLQMNSLKPEDTAVYYCNARGSRWVKPERDYWGQGTQVTVSS” is “low polyreactivity”; for “QVQLVESGGGLVQAGGSLPLSCAASGRTIYRYAMGSYRQAPGKERELDAAIRRSGDSTYYADSVKGRFTISRDIAKKTVYLQMNSLKPEDTAVYYCNAVASGRTYDYWGQGTQVTVSS” it is “high polyreactivity”. For the sequence “QVQLEESGGGLVQAGGRLRLSCAASGSIWSYAMGWYRQAPGKERELVAAISSTGGSTYYADSVKGRFTISRDNAKNTVYLQMNSLKPEDTAVYYCAKGRRYDQSHYNYWGQGTQVNVSS”, the “polyreactivity (PSR sort gate)” value is given as “high polyreactivity”. For “QVQLVESGGGLVQAGGSLRLSCAASGLIFKGYVMGWYRQAPGKERELVAAISRRGGSTYYADSVKGRFTISRDNAKNTVYLQMNSLKPEDTAVYYCATEVYDIDGWWGYDYWGQGTQVTVSS”, the “polyreactivity (PSR sort gate)” value was “high polyreactivity”. Take “QVQLVESGGAIVQAGGSLRLICAASGSIFYIYAMGWYRQAPGKERELVASITFSGDITYYADSVKGRFTISRDNAKYTVYLQMNSLKPEDTAVYYCAADYHEQSYAVTYDYWGQGTKVTVSS”: the “polyreactivity (PSR sort gate)” value is “low polyreactivity”. Turning to “QVQIVESGGGLVPAGCSLRLICAASGFTYALYAMGWYRQAPGKETELVAANTYRGGSTYDADSVKWRFTISRDNAKNTVYLQLISLKPEDTAVYYCNAGGLWFPGVPDYDYWVQGTQVTVSS”, the “polyreactivity (PSR sort gate)” value is reported as “high polyreactivity”. As for “QVQLVESRGGLVQAGGSLRLSCAASGRTFAVYALGWYRQAPGKEWELVAAITLGASRTYYADSVKGRFTISRDNAKNTVYLQMNSLKPEDTAVYSCNAVGRRNVDSSLNDYWGQGTQVTVSS”, the “polyreactivity (PSR sort gate)” value is “low polyreactivity”.

For “QVQLVESGGGLVQAGGSLRLSCAASGFIFRRYAMGWYRQAPGKERELVAAITWSGGSTYYADSVKGRFTISRDNAKNTVYLQMNSLKPEDTAVYYCNRASLPSVWGYDYWGQGTQVTVSS”, the “polyreactivity (PSR sort gate)” value is “high polyreactivity”. The entry for “QVQHGESGGGLVQAGSSLRLSCAASGSTIVNNAMGWYRQAPGKERELVAANTSGGSTNYADSVKGRFTISRDNAKNTVYLQMNSLKPEDTAVYYSNADGDSWYTGIPAVSHGYWGQGTQVTVSS” is “low polyreactivity”. “QVQLVESGGGLVQAGGSLRLSCAASGSTFFDYAMGWYRQAPGKERELVAVISDGGTTTYADSVKGRFTISRDNAKNTVYLQMNSLKPEDTAVYYCAAENQDGLLVILGGYGYWGQGTQVTVSS”: the “polyreactivity (PSR sort gate)” value is reported as “low polyreactivity”. With “QVQLVESGGGLVQAGGSLRLSCAASGFIFGQYALGGYRQAPGKERELVAVITSSGGRTYYADSVKGRFTISRDNAKNTVYLQMNSLKPEDTAVYYCAAPGYGLQVRGRYGYWGQGTQVTVSS”, the “polyreactivity (PSR sort gate)” value is on record as “high polyreactivity”. The entry for “QVQLVESGGGLVQAGGSLRLSCAASGITFYFNAMGWYRQAPGKEREMVAAISWPGGSTYYADSVKGRFTISRDNAKNTVYLQMNRLKPEDTAVYYCAAEAYFELSGGGLEYGYDYWGQGTQVTVSS” is “high polyreactivity”; for “QVQLVESGGGLVQAGGSLRLSCAASGSIFYRYAMGWYRQAPGKERELVAAIRSRTGRTYYADSVKGRFTISRDNAKNTVYLQMNCLNPEDTAVYYCAADKYFSARFDYWGQGTQVTVSS” it is “high polyreactivity”; for “QVQLVESGGGVVQPGGSLSLSCAGSGITFWYYDLVWSRQAPGKERELVATITSSGSTYYADSVKGRFTISRDNAKNTVYLQKNSLKPEDTAVYFCAPQYGYSYYSGRYGYWGQGTQVTVSS” it is “high polyreactivity”.

Regarding “QVQLVESGGGLVQAGGSLRLSCAASGSTFYLYAMGWYRQAPGKERELVASITYSGASTYYADSVKGRFTISRDNAKNTVYLQMNSLKPEDTAVYYCAADQRGWFAVGSQRKYNYWGQGTQVTVSS”, the “polyreactivity (PSR sort gate)” value was “low polyreactivity”. The entry for “QVQLVESGGGLVQAGGSLRLSCAASGRIFRFYAMGWYRKAPGKERELVAAITRNVGSTFYADSVKGRFTISRDNAKKTVYLQMNSLKPADTAVYYCAAESDYYYRYTFDYWGQGTQVTVSS” is “low polyreactivity”; for “QVQLVESGGGLVQAGGSLRLSCAASGSIFRSYAKGWYRQAPGKERELVAAISSSGGRKYYADSVKGRFTISRDNAKNTVYLQMNSLKPEDTAVYYCAAYGAGGYKYDYWGQGTQVTVSS” it is “low polyreactivity”; for “QVQLVESGGGLVQAGGSLRLSCAASGSTFKTYAMGWYRQAPGKEREFVASISTSGGSTYYADSVKGRFTISRDNAKNTVYLQMNSLKPEDTAVYYCAAKGRSYGVTRMYYWGQGTQVTVSS” it is “high polyreactivity”.

As to “QVQLVESGGGLVQAGGSLRLSCAASGRTFYYNAMGWYRQAPGKERELVAAISWSGGRTYYADSVKGRFTISRDNAKNTVYLQMNSLKPEDTAVYYCAATGFYSSHYHLDYWGQGTQVTVSS”, the “polyreactivity (PSR sort gate)” value is given as “high polyreactivity”. Regarding “QVQLVESGGGLVQAGGSIRLSCAASGSTFAKNAMGWYRQAPGKERELVAAISRGGNTYYADSGKGRFTISRDNAKNTVYLQMNSLKPEDTAVYYCSKLPFTRTYLGSLYDYWGQGTQVTVSS”, the “polyreactivity (PSR sort gate)” value is on record as “high polyreactivity”. Regarding “QVQLVESGGGLVQAGGSLRLSCAASGFTLARYAMGWYRPAPGKERELVAALTQSGVSTYYADSVKGRFTISRDNAKNTVYLQMNSLKPEDTAVYYCNALLRRTDYRYTWGYGYWGQGTQVTVSS”, the “polyreactivity (PSR sort gate)” value was “high polyreactivity”. Regarding “QVQLVESGGALVQAGGSIRISCAASGSIFRDYAMGWSRQAPGKERELVAVISIAGRTNYADSVKGRFTISRDNAKNTVYLQMKRLKPEDTAVYYCAADSAWYGYDYWGQGTQVTVSS”, the “polyreactivity (PSR sort gate)” value is on record as “low polyreactivity”. As for “QVQLVESGGGLVQAGGSLRLSCAASGLIFSSYVMGWYRQAPGKERELVAAISSKGGSTYYADSVKGRFTISRDNAKNTVYLQMNSLKPEDTAVYYCAARVYYPVRYGYWGQGTQVTVSS”, the “polyreactivity (PSR sort gate)” value is listed as “high polyreactivity”. Consider “QVQLVESGGGLVQAGGSLRISCAASGSIFLKYAMGWYRQAPGKERELVAAITWTDDRTYYADSVKGRFTISRDNAKNTVYLQMNSLKPEDTAVYYCNTATSKSSYRHYDYWGQGTQVTVSS”, for which the “polyreactivity (PSR sort gate)” value is “high polyreactivity”.
